Experimental data reported in patent publication US20220249640A1 (Dana-Farber, published 2022).
Blank lines part the entries; values can stand above or below the binder they belong to.

Columns and labels:
human PD-1 on cells = human PD-1 on cells (human, UniProt Q15116 25-288); test: cell-based or functional assay
[1] = molecular target: T1, PD-1 (soluble, biotinylated, on sensors or coated on plates) (human, UniProt Q15116 25-167, limits assumed, biotinylated (avi tag, Avidity's biotinylation kit) in the Octet assays); test: method not stated at the list; Octet curves of the mutants in FIG. 23
T1 construct: also called biotinylated PD-1; soluble PD1

[2] = molecular target: T1, PD-1 (soluble, biotinylated, on sensors …); test: Octet (BLI)
[3] = molecular target: T2, mouse PD-1 on transiently transfected Expi293 cells (mouse, UniProt Q02242 25-288); test: flow cytometry on transiently transfected Expi293 cells, anti human Fc-APC
T2 construct: whole, on cells; also called mPD-1
T2 sequence (looked up): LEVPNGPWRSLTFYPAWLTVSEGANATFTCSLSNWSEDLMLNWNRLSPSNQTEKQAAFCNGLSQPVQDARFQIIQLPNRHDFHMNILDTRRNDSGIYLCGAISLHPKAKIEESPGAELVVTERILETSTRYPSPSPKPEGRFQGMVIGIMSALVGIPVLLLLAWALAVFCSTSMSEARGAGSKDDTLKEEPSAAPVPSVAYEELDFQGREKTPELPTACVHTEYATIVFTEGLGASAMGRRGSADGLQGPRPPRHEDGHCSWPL
Method: 3E5 transiently transfected Expi293 cells were suspended in 100 ul MACS buffer and added to each well. 50 ul of each antibody dilution were then mixed with the cells and the plate was incubated at 4° C. for 30 min. Following incubation, the plate was washed 2× with MACS buffer and then incubated with lul/well anti human Fc-APC (Biolegend #409306). The plate was incubated for 25 min at 4° C. and then washed 3× before running the samples.

T1 sequence (Q15116 25-167 limits assumed): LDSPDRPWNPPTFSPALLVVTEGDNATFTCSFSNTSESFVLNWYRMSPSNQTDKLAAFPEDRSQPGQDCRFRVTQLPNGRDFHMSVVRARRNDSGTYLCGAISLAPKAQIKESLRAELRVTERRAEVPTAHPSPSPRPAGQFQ
human PD-1 on cells, sequence (Q15116 25-288): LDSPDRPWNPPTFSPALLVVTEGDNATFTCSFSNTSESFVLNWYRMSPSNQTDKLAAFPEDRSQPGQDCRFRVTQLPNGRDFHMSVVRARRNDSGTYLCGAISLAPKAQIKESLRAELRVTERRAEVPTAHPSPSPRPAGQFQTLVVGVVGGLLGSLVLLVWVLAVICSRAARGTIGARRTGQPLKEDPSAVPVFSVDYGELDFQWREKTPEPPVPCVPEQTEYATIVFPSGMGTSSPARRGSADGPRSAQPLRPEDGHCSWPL

B1: P4-B3 minibody (scFv-Fc) (Fc fusion)
scFv: QVQLVQSGGGLVQPGRSLRLSCAASGFTFDDYAMHWVRQAPGKGLEWVSGISWNSGSIGYADSVKGRFTVSRDNAKNSLYLQMNSLRAEDTAVYYCASDYGDKYYYYGMDVWGKGTTVTVSSGGGGSGGGGSGGGGSQPGLTQPPSASGTPGQRVTISCSGSSSNIGSNTVNWYQQFPGKAPKLLIFNDNQRPSGVPDRFSASKSGTSASLAISGLQSEDEADYYCAAWDGGLNGRGVFGGGTKLTVL
notes: scFv-Fc (minibody) format; also called P4-B3 WT; P4-B3 wild type; not shown: Fc (hinge-CH2-CH3) of the minibody vector and its junction to the scFv
EC50, Promega PD1-PDL1 bioassay (scFv-Fc format) (human PD-1 on cells): 1.75 fold of the EC50 of Nivo
Kd [1]: ~1 nM

B3: P4-B3 IgG1 wild type monomer (antibody, V domains shown)
VH: QVQLVQSGGGLVQPGRSLRLSCAASGFTFDDYAMHWVRQAPGKGLEWVSGISWNSGSIGYADSVKGRFTVSRDNAKNSLYLQMNSLRAEDTAVYYCASDYGDKYYYYGMDVWGKGTTVTVSS
VL: QPGLTQPPSASGTPGQRVTISCSGSSSNIGSNTVNWYQQFPGKAPKLLIFNDNQRPSGVPDRFSASKSGTSASLAISGLQSEDEADYYCAAWDGGLNGRGVFGGGTKLTVLG
fold induction (RLU stimulated/RLU unstimulated), Promega PD1-PDL1 bioassay (human PD-1 on cells): ~0.5 fold of the signal of pembro and nivo

Other lines, results leading:

koff [2]: 6.45e-05 s⁻¹
kon [2]: 68500 M⁻¹ s⁻¹
B2: P4-B3 scFv (scFv)
scFv: B1 scFv
notes: This is a single chain Fv; VH and VL are joined by a G4S linker of which only the DNA is printed

binding result [3]: binds
B4: P4-B3 (format not stated) (antibody, V domains shown)
VH: B3 VH
VL: QPGLTQPPSASGTPGQRVTISCSGSSSNIGSNTVNWYQQFPGKAPKLLIFNDNQRPSGVPDRFSASKSGTSASLAISGLQSEDEADYYCAAWDGGLNGRGVFGGGTKLTVL
notes: It was detected with anti human Fc-APC
